For data set [1], the target named is T1, Nop15 no-ENC (Saccharomyces cerevisiae, UniProt P53927 =SGGSSGKSGSG+50-191, internal_change).
T1 sequence: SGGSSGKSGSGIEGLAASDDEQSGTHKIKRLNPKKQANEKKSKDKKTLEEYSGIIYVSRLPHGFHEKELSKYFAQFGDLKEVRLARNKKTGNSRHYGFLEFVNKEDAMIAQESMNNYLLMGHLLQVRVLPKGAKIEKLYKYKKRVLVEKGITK
Put plainly: fluorescence polarization; 150 mM NaCl; Nop15 FP: 10 nM RNA/DNA, 20 mM Tris-HCl pH 7.5, 0.02% Tween 20, 150 or 50 mM NaCl; SRSF3 FP: 10 mM MES pH 5.5, 50 mM Arg/Glu, 0.1 mM TCEP, 0.02% Tween 20; incubated 37 °C 30 min then 25 °C 20 min, read at RT. The following applies: protein: recombinant, tags: N-terminal SUMO tag (pSMT3) cleaved with Ulp1, label: 5' fluorescein. In general terms: Fluorescence polarisation rises when a labelled molecule tumbles more slowly, as on binding a larger partner.

The target in another data set is T2, Nop15 WT (1xENC) (Saccharomyces cerevisiae, UniProt P53927 40-191).
T2 sequence: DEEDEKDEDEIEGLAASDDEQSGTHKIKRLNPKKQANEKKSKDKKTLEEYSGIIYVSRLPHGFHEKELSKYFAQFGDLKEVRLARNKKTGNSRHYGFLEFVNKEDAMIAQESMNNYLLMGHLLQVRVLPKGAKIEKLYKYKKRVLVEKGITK
The data set is described as above. To be noted: protein: recombinant, tags: N-terminal SUMO tag (pSMT3) cleaved with Ulp1, label: 5' fluorescein.

Data set [2] deals with T3, Nop15 2xENC (Saccharomyces cerevisiae, UniProt P53927 39-49+39-191, internal_change).
T3 sequence: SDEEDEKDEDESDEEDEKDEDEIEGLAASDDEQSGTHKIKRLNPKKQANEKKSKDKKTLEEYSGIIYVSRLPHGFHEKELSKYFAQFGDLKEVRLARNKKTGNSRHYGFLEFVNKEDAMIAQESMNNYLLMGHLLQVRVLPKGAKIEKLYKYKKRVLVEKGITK
Described as above. To be noted: protein: recombinant; tags: N-terminal SUMO tag (pSMT3) cleaved with Ulp1; label: 5' fluorescein; hairpin with 8 bp stem and 9-nt single-stranded region.

The target of data set [3] is T4, Nop15 no-linker (Saccharomyces cerevisiae, UniProt P53927 40-191, del60-76).
T4 sequence: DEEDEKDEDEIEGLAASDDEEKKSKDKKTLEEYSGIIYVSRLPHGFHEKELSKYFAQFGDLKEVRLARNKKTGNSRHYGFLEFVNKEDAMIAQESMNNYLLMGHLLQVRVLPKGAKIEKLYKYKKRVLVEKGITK
Described as above. The following applies: protein: recombinant, tags: N-terminal SUMO tag (pSMT3) cleaved with Ulp1, label: 5' fluorescein.

In data set [4] the target is T3, Nop15 2xENC. Put plainly: fluorescence polarization; ND, too weak for detection; Nop15 FP: 10 nM RNA/DNA, 20 mM Tris-HCl pH 7.5, 0.02% Tween 20, 150 or 50 mM NaCl; SRSF3 FP: 10 mM MES pH 5.5, 50 mM Arg/Glu, 0.1 mM TCEP, 0.02% Tween 20; incubated 37 °C 30 min then 25 °C 20 min, read at RT. To be noted: protein: recombinant; tags: N-terminal SUMO tag (pSMT3) cleaved with Ulp1; label: 5' fluorescein; single strand.

Data set [5] has as its target T4, Nop15 no-linker. The description is as above. The following applies: protein: recombinant; tags: N-terminal SUMO tag (pSMT3) cleaved with Ulp1; label: 5' fluorescein; single strand.
The target of data set [6] is T1, Nop15 no-ENC. Nature of the data set: fluorescence polarization; 50 mM NaCl; Nop15 FP: 10 nM RNA/DNA, 20 mM Tris-HCl pH 7.5, 0.02% Tween 20, 150 or 50 mM NaCl; SRSF3 FP: 10 mM MES pH 5.5, 50 mM Arg/Glu, 0.1 mM TCEP, 0.02% Tween 20; incubated 37 °C 30 min then 25 °C 20 min, read at RT. To be noted: protein: recombinant; tags: N-terminal SUMO tag (pSMT3) cleaved with Ulp1; label: 5' fluorescein; single strand.

[7] abbreviates: hairpin with 8 bp stem and 9-nt single-stranded region.

B1: ITS2 III.A 26-60 (structured_RNA)
RNA: UGAGUGAUACUCUUUGGAGUUAACUUGAAAUUGCU
As a reminder, the Kd is the concentration at which binding is half-saturated. With B1, the Kd in the data set with Nop15 no-ENC [1] (setting [7]) was found to be 173 ± 32 nM; with Nop15 WT (1xENC) (setting [7]), 215 ± 34 nM; with Nop15 2xENC [2], 1870 ± 270 nM; in the data set with Nop15 no-linker [3] (setting [7]), 583 ± 90 nM.

B2: nonspecific stem-loop RNA (structured_RNA)
RNA: AGAGAGAGAGUCUCUCUCUC
Regarding B2, the Kd came out at 244 ± 18 nM with Nop15 no-ENC [1] (hairpin, 8 bp stem); 945 ± 65 nM with Nop15 WT (1xENC) (hairpin, 8 bp stem); 14100 ± 1400 nM with Nop15 no-linker [3] (hairpin, 8 bp stem).

B3: nonspecific ssRNA (ssRNA)
RNA: UUCAGAGCA
Take B3: the binding result with Nop15 2xENC [4] and with Nop15 no-linker [5] was “no binding” throughout. Moreover, the Kd in the data set with Nop15 no-ENC [6] was determined as 427 ± 98 nM.

B4: nonspecific ssDNA (ssDNA)
DNA: AGAGAGAGA
Take B4: the binding result in the data set with Nop15 2xENC [4] and with Nop15 no-linker [5] was “no binding” each time. In addition, in the data set with Nop15 no-ENC [6], the Kd is 1160 ± 150 nM.
